Here are results for 14 sequences from the DeepSol protein solubility set.

A short description of the data set: soluble on expression in E. coli; label from the status in PepcDB or PDB records.
For “MTASSPNRARTSLAAYASAGPVSLPAGSTRTVASGTSSRTRSAYASRVTASRSSAKAARSAVRRSRLRSSSPSASSCLGRWLRLAGYSRVPVPPASRTAATVCVTARSPGGWSACRRVRRRGPNACLRGASDRVHPGCGDLKGVGSKHRYVSHRNTRGDGYTTMSDLSDTAQEVHDDLSEHVDATVDDVEARLEKLVSEYKVPVDEARRSVENHYLDEAGLDRDDLAGGGGNDTVEVEDVDEAEQWVDITAKVVELWEPRSDSVGQVGLLGDPTGTIKFTKWAKSDLETLDEGQVYRLGNVVTDEYQGRYSVKLNKTTSIEAVDEEFEVGDNEDEVAGALVDVQSGSGLIKRCPEEDCTRVLQNGRCNEHGEGDGEFDLRIKGVLDDGTDVHEVIFDEEATEALTGIGLEEAKQMAKDALDTTVVADEMRATILGKYYRVTGPTFGRYVLANDTELLTTRPDTESVLIRARSILEHHHHHH”, the “soluble on expression in E. coli” value was “not soluble”.
In the case of “AMAEAYQIQSNGDPQSKPLLELYVKASGIDARRIGADLFCQEFWMELYALYEIGVARVEVKTVNVNSEAFKKNFLGAQPPIMIEEEKELTYTDNREIEGRIFHLAKEFNVPLFEKDPSAEKRIENLYRNFKLFLRAKVEFDKGKKEPSRVEDLPAQIKVHYNRVCEQLSNIDQLLSERKSRYLLGNSMTEYDCELMPRLHHIRIIGLSLLGFDIPHNFTHLWAYILTAYRTAAFIESCPADQDIIHHYKEQMNLFTNQRETLQSPTKTHTIPEKVLSDIRVKGLAPDVNVH” it was “soluble”; in that of “MGKREKKPNRRRHKGEYSNDAEDFYDQHPPAVASVDEEDEENSDEEEEENDGNESSDLPSKFLLYQQSVQSPKGDISYLQKFFLIFYIDCWNSAEWLKTDTRRTAIGLDFDLEALEWCMDNNISKLGSDVYSRMSLFHGNVLTPLEAKQVKSKSHELIQNISLDDGDDNEDLADPSVVESLEKDGPDSLPKRDIVCAFNFSCCCLHKRSELVSYFKNARDALSKKGGIFVMDLYGGASAEGQLKLQRKFPNFTYTWEQAEFDILSRKTRISLHYHLQKQNRKIRHAFSYSWRLWSLPEIKDCMEEAGFSSVHFWLREMPDASEMRRTDGFGAGRDIKYEQVKSFQQCDSWNAYIVAVSL”, “not soluble”.
In the case of “SLGEMKRAAIIIDDFGGDVKGVDDFLTGEIPVTVAVMPFLEHSTKQAEIAQAAGLEVIVHMPLEPKKGKISWLGPSGITSNLSVGEVKSRVRKAFDDIPYAVGLNNHMGSKIVENEKIMRAILEVVKEKNAFIIDSGTSPHSLIPQLAEELEVPYATRSIFLDNTHSSRKEVIKNMRKLAKKAKQGSEPIGIGHVGVRGDETYAGIRSMLDEFQAESIQLVPVSQLLPSPIEEDHNKFWQQPFQAKE” it was “soluble”; in that of “TADNNSMPHGAVSSYAKLVQNQTPEDILEEFPEIIPLQQRPNTRSSETSNDESGETCFSGHDEEQIKLMNENCIVLDWDDNAIGAGTKKVCHLMENIEKGLLHRAFSVFIFNEQGELLLQQRATEKITFPDLWTNTCCSHPLCIDDELGLKGKLDDKIKGAITAAVRKLDHELGIPEDETKTRGKFHFLNRIHYMAPSNEPWGEHEIDYILFYKINAKENLTVNPNVNEVRDFKWVSPNDLKTMFADPSYKFTPWFKIICENYLFNWWEQLDDLSEVENDRQIHRML”, “soluble”.
The entry for “MLPERVLEILREMKRERIKGASWLAKKGAEAFLTLAEELDESLLEDAIMELREEVVKVNPSMASLYNLARFIPVTNRRDILKSRALEFLRRMEEAKRELASIGAQLIDDGDVIITHSFSSTVLEIIRTAKERKKRFKVILTESSPDYEGLHLARELEFSGIEFEVITDAQMGLFCREASIAIVGADMITKDGYVVNKAGTYLLALACHENAIPFYVAAETYKFHPTLKSGDVMLMERDLIRGNVRIRNVLFDVTPWKYVRGIITELGIVIPPRDIQLEHHHHHH” is “not soluble”.
On to “MSKSVSIPQALSDLKRTSLRRLSSARGVGNKKTVVSTSTPLSGFVILVEREEKVVRLYGTAAERAGLSIGDEIVGVNDMKIEGKSYEEVTTYIQECIRRKIIQLKVRRRALEIPAENEASVFNCTNSNRMITDAYLVSVDKDHIKEVTKRLKK”, for which the “soluble on expression in E. coli” value is “not soluble”.
On to “MADNPTNLRNADFRKLLTSARSDRPAVSAFAKPADPKTGDDKPASFKHKHLKPAKFKKPQAAAHGKAKKEKTEADEDEAALKNILKNYRDRAAERRKQGDEKEDPSKLTAAYRAVPGDARSAQDQADLRKQAILESKYLGGDLEHTHLVKGLDYSLLNKVRSEIDKSDDDDDDDIDTAFDEKVTSSSSSSKPSEASLLAQELAQSHSENRMVRSLHRVLFKNEVPLHNQLFAKGRMAYVVELEDEETDIPTTLLRSLHDLPRAESAQSIQANNLIILKLSHVLSHLRAEPKKKKKEEFRVQLGSRDAPGAAAAAPGAKGDSIYDDLDDYVPSRKSRDSRDAGRRGSRRDRSRDRSRDRDRDRDRDNRDRYFEKSANSRREEEQNRREQQRERERAEQERRREREKEREQEKAKEREKKRKELEESSGYDECYPGGLVEMGGAWDSDEEADYSKMDAGPKKNQAVNRWDFDTEEEYASYMEGREALPKAAYQYGVKNGEGGRKNKKQSAVSDAKRLDRELNEINKIMDKRKAGGDGAGGGGDYKKPKY”, for which the “soluble on expression in E. coli” value is “not soluble”.
The entry for “MHQQIIKFWFEELTPQNWFENNPELDKHIASRFASVLEQAARCELFNWRDSAQGRLAEIIVLDQFSRNVYRNTPKAFAQDPLALALAQEAIRLGHDQELAPEQLSFLYMPFMHSESRLIHVEAEKLFRASGLENNYDFELKHKAIIDQFGRYPHRNAILGRESTPEELAFLQQPGS” is “soluble”.
“MGSDKIHHHHHHMKVVSLLTDFGDFYPGVMKGVILSLAPEARIVDITHSVEPQNILQGAFLLYHSFRYFRNAVHVAVVDPGVGSERRALVIEGKNHFFVGPDNGILYPSAVEDGIKAAYSIKEEISELVGELSSTFHGRDIFAPAAAMVVRGDYTYFEEINKEELEKLELFDCSIQGNKVRCRVVYVDRFGNVVTNLREVKGKGFYFRGVEFPFVKTYSDVDVGKPLSLIGSFGTLELSVREGSAAEMLGIKRGGGWIELEVL”: the “soluble on expression in E. coli” value is reported as “not soluble”.
For “MKNKTKNATLKSIIDVILYENPSTQDEIAERLGITRRYVTKLLQPLIREGVVRRAYIVDIKKFDEFPELFGEEVTSREYAGSFFIKEILRDMAQHVCKQLNKSFRSLEEYDEDLANEALKMDYITNTMHEKVRSSVDTAIAMNPYSEFSKTMAFTEIAYDLERIGDHSAIIANFAIKESYEVDPAMMEYLRDMFSIAVEMVKTAMDAFLNEKLELKATLMSLEDDIHRIQKNALNCVATQMAETPFEDKERSTYYISLSRVVKTLERIADISIEIFDTAGEYYRNIPRTTTPERFRRREREES”, the “soluble on expression in E. coli” value is “soluble”.
The entry for “MLIVRPSGRAAEDVETCLNAGWRAEVLSPVEIEADAAGLELLSEQYARADAVFWVSPTAVETAVPYLNLSDGIKAQIAVGQGSRRALERCLVRTVIAPDDGNDSEAVLRLPVWNSLPEGARVLFVRGHGGRDFLMNALQEKGFRTEVAEVYFRRHKPLNFQNFQTENIAAAYITSTELVRLLFGQLPPQFSRFFKSLLYFTHHPRIAEALKREGVCSVETVPTLEAALSHSSISVSDGMVFPGTSN” is “not soluble”.
As to “MKCLKPSIGPVRGTDGDWKNIMKQFLRCGLAFAWSSVLGSSIAMDSLFGLPVRSTVKANLGALREGYVNIAVHGHSPLLVSEIVKQGRSREFIQMAKEKGALGIQFYGICCSGLSAMYRYGGVIPLSNAIGAELVLGTGAIDLWVADVQDVFPSIMDVAKCFKTTVVTTSDSARLPGAEHYAYDHHHSNLAQTQELAKTIVKRAIESFEARRDVPVFIPNYEVDAEIGFSVEYATSRFGSMDVIAKALQEGKIRGVVNLVGCNNPRVMYEKAIADVARKLIENNILVLTNGCASFPLLKLGYCNVKALEWTGKELREFLEPDLPPVWHMGECLDNARASAFFRALADSLKKDIKDMPFAFASPEWSNEKGVGAALGFRLLGINSYHSVYPPVQGSKNVMKYLFEDTEKTLGAVMIVEVDPLKLADRIISDIDEKRKALMWK”, the “soluble on expression in E. coli” value is “not soluble”.
In the case of “ASWSHPQFEKIEGRDTWRYAFEEAMTDVQGVYAQKFKEEIEANSDHEIQLFPYGTLGESADIMEQTQDGILQFVDQSPGFTGSLIPEAQVFFVPYLLPTDQDHLARFFKESKAINDMFKPLYADQGLELLNMFPEGEVAMTTKTPVTTCSDLDEVKFRVMTNPLLVESYKAFGATPTPLPWGEVYGGLQTNVIQGQENPTFFLYSTKIYEVTDYITYAGHNNFTTAVMANKDFYDGLSAEDQQLVQNAALAAYDHTVVYQQQAADTELAKIMEAKPEMQVTVLTDEQRSCFKEAAAEVEAKFIEMTGDSGAAILKQMKADLAATAN” it was “soluble”.
